The source of these data is patent US20240124576A1.

The target of assay [1] is T1, biotinylated human Siglec-15 protein (Acrobiosystems, Cat. No. SG5-H82E9) (human) (UniProt Q6ZMC9).
T1 sequence (biotinylated, looked up): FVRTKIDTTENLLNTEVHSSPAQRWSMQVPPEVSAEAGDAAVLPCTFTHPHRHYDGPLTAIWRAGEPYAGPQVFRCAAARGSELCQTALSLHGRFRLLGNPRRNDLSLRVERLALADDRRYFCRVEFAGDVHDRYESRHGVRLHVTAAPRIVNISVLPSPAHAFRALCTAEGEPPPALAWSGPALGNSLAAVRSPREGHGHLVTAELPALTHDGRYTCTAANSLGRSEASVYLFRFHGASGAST
Briefly: flow cytometry of yeast-displayed scFv clone, 30 nM Human S-15 Biotin, Streptavidin-PE. Background: Flow cytometry measures light scatter and fluorescence of single cells or particles in a stream.

Assay [2] deals with Monkey S-15-Fc (Acrobiosystems, Cat. No. SG5-C5253) (monkey). Briefly: flow cytometry of yeast-displayed scFv clone, 10 nM Monkey S-15-Fc, M&H Fc-APC.
The target in a further assay is Irrelevant antigen. The assay can be described thus: flow cytometry of yeast-displayed scFv clone, 30 nM irrelevant antigen, Streptavidin-PE.
Assay [3] addresses murine S-15 Biotin (Acrobiosystems, Cat. No. SG5-M52H7, biotinylated) (murine). The assay can be described thus: flow cytometry of yeast-displayed scFv clone, 30 nM Murine S-15 Biotin, Streptavidin-PE.

B1: Ab0 (clone Y14C4), single-chain antibody displayed on yeast (scFv, part only; not given: linker, domain order, tag, anchor, V domains shown, not shown: another chain or arm of the molecule; large carriers; small tags and cut ends)
VH: EVQLLESGGGLVQPGGSLRLSCAASGFTFSSYAMSWVRQAPGKGLEWVSTISGGGGSTYYADSVKGRFTISRDNSKNTLYLQMNSLRAEDTAVYYCAKAIGSSWYSDAFDLWGQGTMVTVSS
VL: DIQMTQSPSSVSASVGDRVTITCRASQDISSWLAWYQQKPGKAPKLLIYVASSLQSGVPSRFSGSGSGTDFTLTISSLQPEDFATYYCQQSYSIPYTFGQGTKLEIK
The molecule B1 displayed a Human S-15 binding signal in assay [1] of 666 MFI. Also, the Monkey S-15 binding signal in assay [2] is 588 MFI. Further, the Irrelevant antigen-binding signal with Irrelevant antigen is 12.5 MFI. Also, the Murine S-15 binding signal in assay [3] is 286 MFI.
